Experimental data from the supplement of paper PMC10724198.
± gives the standard deviation of the averaged measurements.

What follows are sequences tested on Saccharomyces cerevisiae (assay: protein stability index of tFT-peptide fusion (C-terminal peptide) (PSI (0-1 scale)); higher = more stable (slower turnover)). Conditions: genetic background: wild type; temperature: 30 C.
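Note: PSI is a weighted mean of sequencing reads over stability bins, variants kept only with over 10 reads, mCherry proximal and sfGFP distal, peptide attached via GGGS linker.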

| Sequence | protein stability index |
| --- | --- |
| INYSNQNKINRW | 0.6294 ± 0.00076 |
| NINHTNLKENKD | 0.667 ± 0.0099 |
| LESGSARLFLWI | 0.746 ± 0.16 |
| NDAKQKRLTFET | 0.671 ± 0.048 |
| LSDMNHVLKVFL | 0.665 ± 0.054 |
| GCEGGGRVGSWT | 0.742 ± 0.028 |
| KLPRPPQRLRLP | 0.684 ± 0.066 |
| LSLDMVAPTGLA | 0.686 ± 0.014 |
| SGAVGSTNYGTR | 0.743 ± 0.018 |
| FGVGGRWVVPGA | 0.733 ± 0.016 |
| LGGGGGVECRVG | 0.672 ± 0.058 |
| SGRVMRAFSCGV | 0.6228 ± 0.0036 |
| TPLPPSALPLPL | 0.724 ± 0.066 |
| DDGGSVTERDKS | 0.649 ± 0.007 |
| RCPVFRCITGGL | 0.61 ± 0.031 |
| SLAGLLPCRLTP | 0.621 ± 0.023 |
| RPPLPPPPPLPP | 0.578 ± 0.03 |
| PPPLLPFPPIPR | 0.697 ± 0.033 |
| VGRVGVRDGVVG | 0.613 ± 0.032 |
| KYNKQRQTRIET | 0.663 ± 0.019 |
| LLCLVSCFGCWL | 0.585 ± 0.052 |
| RGSWRGLADSGV | 0.676 ± 0.08 |
| GLGVPCDFRVVA | 0.694 ± 0.013 |
| YKVKADRVRHRR | 0.692 ± 0.013 |
| VLGPFKKSIQVL | 0.522 ± 0.02 |

| Sequence | protein stability index |
| --- | --- |
| LSYPPPPTQPPA | 0.734 ± 0.0083 |
| SCSVGRRIGLGQ | 0.688 ± 0.061 |
| TAHHTRPQYLPL | 0.622 ± 0.022 |
| RLITGTKLFNGM | 0.765 ± 0.045 |
| YSSGKPMEITIA | 0.678 ± 0.084 |
| DCYFNVHFKSIG | 0.654 ± 0.074 |
| SYGDPSTTRLSP | 0.701 ± 0.063 |
| CTGDLSHVLFGI | 0.725 ± 0.016 |
| PFPPLPPPPSPC | 0.71 ± 0.014 |
| PLLDPFFPLVFT | 0.58 ± 0.019 |
| GSFGQLIIRYSS | 0.568 ± 0.0088 |
| KCAIKKQEQTSR | 0.642 ± 0.02 |
| MGWGALGARGLV | 0.683 ± 0.029 |
| ICCASALPFDIS | 0.784 ± 0.19 |
| FLFLSFLSSSPS | 0.745 ± 0.0088 |
| SFRCLGFTSSRV | 0.681 ± 0.05 |
| CDSRLSGVFKFG | 0.6816 ± 0.0026 |
| SPAPPPGVPPSR | 0.687 ± 0.03 |
| WPKNSTNHSWKW | 0.744 ± 0.035 |
| LPGFTLPSSPSH | 0.702 ± 0.034 |
| VARGVGGGVWRS | 0.704 ± 0.015 |
| EWMIHQFCRVPV | 0.62 ± 0.0097 |
| GWTVCVFGSCGV | 0.692 ± 0.051 |
| FLSRLGLVGWWG | 0.643 ± 0.036 |
| RRFPYGPFDFSI | 0.6645 ± 0.0049 |

| Sequence | protein stability index |
| --- | --- |
| GYTRYYRLLQSR | 0.642 ± 0.028 |
| GVGGVLLCCCIV | 0.573 ± 0.35 |
| TSGLSSAGSRSL | 0.647 ± 0.044 |
| CDWRSMEWRGCW | 0.693 ± 0.0072 |
| AWRGGSRKDVEG | 0.7129 ± 0.001 |
| TSASLLLSFAVP | 0.6768 ± 0.0022 |
| PTKKRQHSDRRK | 0.644 ± 0.013 |
| TRLTSATHGVCC | 0.6331 ± 0.0053 |
| LTRLAYGLATAL | 0.664 ± 0.019 |
| DLWTRGAVHRKA | 0.6756 ± 0.0061 |
| NGMKDKTKIAKI | 0.701 ± 0.008 |
| ITSSPSSPPAPP | 0.634 ± 0.0096 |
| QKKKEKKQKEGD | 0.678 ± 0.009 |
| AGQGGWREAGGG | 0.676 ± 0.027 |
| NSGSNKSNNRKC | 0.726 ± 0.032 |
| YLPRPPPTTALL | 0.74 ± 0.087 |
| YLSFYRLLDSST | 0.664 ± 0.007 |
| PVSALHLSLSCP | 0.698 ± 0.028 |
| KDVGKVATRRSK | 0.696 ± 0.028 |
| VVWEGSEFVSLA | 0.671 ± 0.039 |
| PPPSPPPSLSLP | 0.702 ± 0.025 |
| GGTEGSGWSGGG | 0.638 ± 0.029 |
| FSLLCGPGLRGF | 0.72 ± 0.02 |
| PCSVDKAGSTKK | 0.606 ± 0.014 |
| ENGRRTDKKVST | 0.687 ± 0.023 |

| Sequence | protein stability index |
| --- | --- |
| PSELLPQLPSRW | 0.702 ± 0.019 |
| RPPTASPLVAPA | 0.655 ± 0.0067 |
| VTKRSKKNPTNN | 0.691 ± 0.018 |
| SVGGLAALLCGL | 0.682 ± 0.037 |
| LNQHEQKRKNEG | 0.724 ± 0.098 |
| GCGAMGWAVPAA | 0.655 ± 0.041 |
| FGVDGVGVVVGY | 0.669 ± 0.0086 |
| STPVKLPTSSLP | 0.663 ± 0.051 |
| PPAPPEPRIVRR | 0.684 ± 0.076 |
| PPPFSPLPPGPP | 0.699 ± 0.0077 |
| TPPSPLPPSPPR | 0.728 ± 0.058 |
| CSVCMSSSRLFS | 0.733 ± 0.014 |
| PPPPPSLACPPP | 0.688 ± 0.037 |
| YGNTQFLTQTWY | 0.705 ± 0.021 |
| GGSGGGRRGVGR | 0.656 ± 0.0095 |
| CFSRKGIRIKRP | 0.734 ± 0.0098 |
| VFGWAGVGGDCG | 0.674 ± 0.012 |
| MLLLIDTSGGWS | 0.71 ± 0.011 |
| VRCCFGGRGGIA | 0.653 ± 0.0079 |
| RWGGSSPGRSFA | 0.766 ± 0.0091 |
| SRETRRRENPAK | 0.677 ± 0.19 |
| KMGRTEIWTIHL | 0.685 ± 0.053 |
| HSLRPPPRHQQK | 0.689 ± 0.02 |
| GFTVVGCSYVTT | 0.5572 ± 0.0023 |
| TGLRLFGVLSLI | 0.607 ± 0.016 |

| Sequence | protein stability index |
| --- | --- |
| YLTCTLLSQPIY | 0.542 ± 0.027 |
| PPPPPRPPLSPP | 0.725 ± 0.03 |
| RDELRTSAGKGS | 0.659 ± 0.055 |
| LRRTMRLASASF | 0.831 ± 0.014 |
| RCGVGGSVSFWW | 0.689 ± 0.05 |
| PLPPSLRPALSP | 0.7188 ± 0.00078 |
| IAASCGPRYKDS | 0.632 ± 0.077 |
| SPPLPACSPPLA | 0.715 ± 0.035 |
| KKQNRTRLKKSK | 0.702 ± 0.03 |
| GCRGEGGWVGRG | 0.6955 ± 0.0029 |
| FVGWVAMGGSVV | 0.731 ± 0.024 |
| HWTLRRGTGIEL | 0.6693 ± 0.0061 |
| GMWFRIGHCRFA | 0.684 ± 0.058 |
| CLWRGDEGRVPW | 0.7139 ± 0.0026 |
| VGGGRDLFFFKF | 0.602 ± 0.044 |
| EPMHTLKSIITH | 0.635 ± 0.073 |
| RFSKGKPVSAGG | 0.632 ± 0.033 |
| GFYPGRSKGCLG | 0.73 ± 0.05 |
| PPRPPPLPPSPP | 0.685 ± 0.094 |
| ILCPSPAPTSFP | 0.6682 ± 0.0061 |
| WVPGAAGFTGSL | 0.74 ± 0.049 |
| AQPGRLHLSCES | 0.688 ± 0.052 |
| YGYMTNNCLLSI | 0.649 ± 0.041 |
| LRISIEVTNYGP | 0.517 ± 0.021 |
| LLLLIPCYSPPP | 0.659 ± 0.071 |

| Sequence | protein stability index |
| --- | --- |
| VLRDLGVSLSRA | 0.785 ± 0.025 |
| ESCIKGCSGVVS | 0.651 ± 0.06 |
| FLLFLSSAPPAT | 0.655 ± 0.0084 |
| PVCIRSLGTALF | 0.675 ± 0.0086 |
| EKGRVGLKIIKE | 0.695 ± 0.038 |
| KKKKKKKTKKQK | 0.696 ± 0.024 |
| LVQPHGSRFGLA | 0.644 ± 0.012 |
| ILCFSLESPRYH | 0.6991 ± 0.0022 |
| AVAPPISTLLPV | 0.743 ± 0.04 |
| WVGVGMRTNGLG | 0.679 ± 0.072 |
| KKMKVEKGITQK | 0.775 ± 0.068 |
| PPAPPPLPLPLF | 0.72 ± 0.0079 |
| KEYNIKNEREEK | 0.716 ± 0.031 |
| NIKITVHSTMDM | 0.698 ± 0.019 |
| NYCKGFLLRANI | 0.645 ± 0.071 |
| KSVQEPTPRKYR | 0.674 ± 0.026 |
| VFLRGGVLPLRR | 0.691 ± 0.012 |
| VSPPPRFPLLPS | 0.669 ± 0.03 |
| SGRPEGERAPEQ | 0.728 ± 0.06 |
| GVGCVGWGSSCA | 0.673 ± 0.093 |
| RVLWGTESFIDL | 0.7383 ± 0.0048 |
